Test results taken from publication PMC11786912 (Computational and Structural Biotechnology Journal, 2025).
Where a chain is given by its changes, count along the chain named. One block for each binder: values may come before it. Ends that are not written are not given here. * marks the point of attachment. Biotin = O=C1N[C@H]2[C@H](CS[C@H]2CCCCC(=O)*)N1; Ahx = NCCCCCC(=O)O

Key:
[1] = target: T1, biotinylated CD99 peptide target epitope (Biotin-Ahx-AVVDGENDDPRPPNP) (Homo sapiens (synthetic peptide)); test: BLI
T1 chain: {Biotin-Ahx}-AVVDGENDDPRPPNP

[2] = target: CD99 on the surface of Jurkat T cells (Homo sapiens (Jurkat, endogenous), UniProt P14209); test: flow cytometry on cells
Chain of CD99 on the surface of Jurkat T cells (P14209 23-185): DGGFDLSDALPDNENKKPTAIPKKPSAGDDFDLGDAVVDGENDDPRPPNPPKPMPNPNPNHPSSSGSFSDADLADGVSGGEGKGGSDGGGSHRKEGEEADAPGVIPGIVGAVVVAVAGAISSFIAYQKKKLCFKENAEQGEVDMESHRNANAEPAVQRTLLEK

Kd [1]: 264 nM
binding result [2]: binds
B1: HuScFvMT99/3^BP (His6X) (scFv, V domains shown)
VH: QVQLQESGPGLVKPSETLSLTCTVSGGSIKDTYIHWVRQPPGKGLEWIGRIDPGNGNIKYDPKFQGRATISADTSKNQVSLNLDSVTAADTAIYYCARSGGYDFDYWGQGTLVTVSS
VL: VLMTQSPSSLSASVGDRVTITCRSSQSLVHSNGNTYLHWYQQKPGQSPKLLIYTVSNRFSGVPDRFSGSGSGTDFTLTISSLQAEDVAVYYCSQSTYVPYTFGPGTKVDIK

Kd [1]: 135 nM
B2: HuScFvMT99/3^WT (His6X) (scFv, V domains shown)
VH: B1 VH with V24L, G27F, S28N, T87S, Q109K, T111S, L112T
VL: B1 VL with L2Q, Q46K, S47A, D64S, L77F, A84P, V87I, V89T, Y91F

Kd [1]: 395 nM
binding result [2]: binds
B3: HuScFvMT99/3^HY (His6X) (scFv, V domains shown)
VH: B1 VH
VL: B1 VL with L2Q, Q46K, S47A, D64S, L77F, A84P, V87I, V89T, Y91F
